Laboratory results from patent publication US20170037124A1 (Regeneron, published 2017).
One block for each binder: values may come before it.

How the values were obtained:
[1] = molecular target: T1, human ANGPTL8 peptide (hANGPTL8 peptide, SEQ ID NO: 337) (human); assay: SPR, captured mAb, 500 nM peptide, 25C
T1 construct: also called N-terminal region ANGPTL8 peptide
T1 peptide: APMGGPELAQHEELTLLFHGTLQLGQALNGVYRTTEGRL

[2] = molecular target: T2, peptide from the N-terminal coiled-coil region of human ANGPTL3 (hANGPTL3 peptide, SEQ ID NO: 338) (human); assay: SPR, captured mAb, 500 nM peptide, 25C
T2 construct: also called hANGPTL3 shift peptide
T2 peptide: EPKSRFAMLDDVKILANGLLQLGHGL

[3] = molecular target: T3, peptide from the N-terminal coiled-coil region of human ANGPTL4 (hANGPTL4 peptide, SEQ ID NO: 339) (human); assay: SPR, captured mAb, 500 nM peptide, 25C
T3 peptide: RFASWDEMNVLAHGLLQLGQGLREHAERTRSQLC

[4] = molecular target: T4, anti-mFc (AMC) Octet biosensor, blank; assay: BLI Octet, blank AMC sensor, 100 nM mAb, 25C
T4 construct: Sensor without captured protein, used as blank; also called Blank AMC Sensor
How it was run: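 Antigen-mFc (human or cynomolgus ANGPTL8; hLDLR-mFc as negative control; one blank sensor) captured to ~1.6 nm from 10 μg/mL over 4 min. Sensors dipped 4 min in 100 nM mAb or isotype control at 25° C. Buffer: 10 mM HEPES pH 7.4, 150 mM NaCl, 0.05% Tween-20, 1 mg/ml BSA, shaken at 1000 rpm.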

[5] = molecular target: T5, human ANGPTL8 expressed with C-terminal mouse IgG2a Fc tag (hANGPTL8-mFc; SEQ ID NO: 340) (human); assay: BLI Octet, captured antigen, 100 nM mAb, 25C
T5 construct: also called Angiopoietin-like protein 8
T5 chain: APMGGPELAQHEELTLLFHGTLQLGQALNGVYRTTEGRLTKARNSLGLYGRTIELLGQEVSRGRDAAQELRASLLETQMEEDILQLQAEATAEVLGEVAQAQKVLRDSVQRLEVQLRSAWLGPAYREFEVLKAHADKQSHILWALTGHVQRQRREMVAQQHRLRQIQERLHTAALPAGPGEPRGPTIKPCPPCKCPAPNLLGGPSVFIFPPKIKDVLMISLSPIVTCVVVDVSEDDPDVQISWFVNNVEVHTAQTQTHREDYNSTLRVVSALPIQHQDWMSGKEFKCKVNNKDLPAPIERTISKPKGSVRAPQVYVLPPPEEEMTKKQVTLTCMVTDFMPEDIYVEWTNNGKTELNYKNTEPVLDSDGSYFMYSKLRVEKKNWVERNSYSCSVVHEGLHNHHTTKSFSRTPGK

[6] = molecular target: T6, monkey ANGPTL8 expressed with C-terminal mouse IgG2a Fc tag (MfANGPTL8-mFc; SEQ ID NO: 341) (cynomolgus monkey); assay: BLI Octet, captured antigen, 100 nM mAb, 25C
T6 construct: also called cynomolgus monkey ANGPTL8
T6 chain: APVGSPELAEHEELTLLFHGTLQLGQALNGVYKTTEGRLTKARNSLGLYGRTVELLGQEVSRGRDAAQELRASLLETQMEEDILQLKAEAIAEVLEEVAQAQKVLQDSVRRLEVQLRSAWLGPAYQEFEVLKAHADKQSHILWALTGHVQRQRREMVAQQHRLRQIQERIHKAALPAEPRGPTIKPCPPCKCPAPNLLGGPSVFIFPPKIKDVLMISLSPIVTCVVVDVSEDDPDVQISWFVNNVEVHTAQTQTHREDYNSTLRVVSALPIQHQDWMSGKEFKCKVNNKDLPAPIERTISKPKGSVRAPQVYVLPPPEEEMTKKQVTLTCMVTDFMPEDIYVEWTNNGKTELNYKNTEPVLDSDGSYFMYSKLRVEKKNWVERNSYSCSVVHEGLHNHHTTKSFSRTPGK

[7] = molecular target: T7, negative control protein with the same mFc tag (hLDLR-mFc) (human; mouse, UniProt P01130 22-788, limits assumed); assay: BLI Octet, captured antigen, 100 nM mAb, 25C
T7 construct: also called Irrelevant control; not shown: mouse IgG2a Fc tag (same mFc tag as hANGPTL8-mFc)
T7 sequence (P01130 22-788 limits assumed): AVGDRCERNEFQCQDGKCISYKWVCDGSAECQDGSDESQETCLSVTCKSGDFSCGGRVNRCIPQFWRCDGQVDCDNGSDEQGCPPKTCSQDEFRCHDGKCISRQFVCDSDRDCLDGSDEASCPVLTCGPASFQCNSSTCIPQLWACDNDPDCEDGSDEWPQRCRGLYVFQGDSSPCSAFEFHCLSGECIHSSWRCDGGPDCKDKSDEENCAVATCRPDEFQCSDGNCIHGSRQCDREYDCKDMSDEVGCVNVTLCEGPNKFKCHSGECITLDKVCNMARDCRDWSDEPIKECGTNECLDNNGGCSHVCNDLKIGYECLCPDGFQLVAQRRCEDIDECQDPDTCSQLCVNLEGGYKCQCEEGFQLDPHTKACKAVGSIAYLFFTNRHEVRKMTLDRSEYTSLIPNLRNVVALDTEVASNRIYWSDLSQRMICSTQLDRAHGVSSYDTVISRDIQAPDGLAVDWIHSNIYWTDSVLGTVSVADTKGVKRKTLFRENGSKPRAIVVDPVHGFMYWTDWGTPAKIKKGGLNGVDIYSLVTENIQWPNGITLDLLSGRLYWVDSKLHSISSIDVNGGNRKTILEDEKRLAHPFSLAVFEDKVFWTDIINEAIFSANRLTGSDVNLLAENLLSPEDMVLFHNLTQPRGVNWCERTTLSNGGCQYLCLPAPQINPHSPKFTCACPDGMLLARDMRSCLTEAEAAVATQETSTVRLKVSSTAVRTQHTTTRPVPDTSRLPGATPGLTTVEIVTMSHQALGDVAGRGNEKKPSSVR

[8] = molecular target: T5, human ANGPTL8 expressed with C-terminal …; assay: BLI Octet, captured antigen, 100 nM mAb, 25C; background 0.03 nm
Description: Binding of ANGPTL8 antibodies to human and monkey ANGPTL8 proteins was investigated using Bio-layer Interferometry with an Octet HTX biosensor platform (ForteBio, A Division of Pall Life Sciences). All experiments were performed at 25° C. in 10 mM HEPES pH 7.4, 150 mM NaCl, 0.05% v/v Surfactant Tween-20, and 1 mg/ml BSA with the reaction multiwell plate agitated at 1000 rpm. Approximately 1.6 nm of human ANGPTL8 produced with a C-terminal mouse IgG2a Fc tag (hANGPTL8-mFc; SEQ ID NO: 340) or cynomolgus monkey ANGPTL8 produced with a C-terminal mouse IgG2a Fc tag (MfANGPTL8-mFc; SEQ ID NO: 341) was captured onto anti-mFc (AMC) Octet biosensors by submerging the sensors into wells containing 10 μg/mL of each protein for 4 minutes. Under the same conditions a negative control protein with the same mFc tag (hLDLR-mFc) was also coupled to the AMC sensor. All four sensors, […] and one blank, were then submerged into wells containing 100 nM of different ANGPTL8 monoclonal antibodies or an isotype control for 4 minutes.

[9] = molecular target: T8, linear peptide 1APMGGPELAQHEELT15 (SEQ ID NO: 348) (human); assay: Pepscan peptide array ELISA, 1 µg/ml antibody
T8 construct: Synthesized on a solid support (Pepscan array)
T8 peptide: APMGGPELAQHEELT

[10] = molecular target: T5, human ANGPTL8 expressed with C-terminal …; assay: SPR MASS-1, antigen-mFc captured, mAb injected, 25C
Description: (§1) All binding studies were performed in 10 mM HEPES pH 7.4, 150 mM NaCl, 3 mM EDTA, and 0.05% v/v Surfactant Tween-20 (HBS-ET running buffer) at 25° C. The HCA sensor surface was first derivatized by amine coupling goat anti-mouse IgG2a polyclonal antibody (Southern Biotech, #1080-01) onto which was then captured approximately 30 RU ([…]) of human ANGPTL8 expressed with C-terminal mouse IgG2a Fc tag (hANGPTL8-mFc; SEQ ID NO: 340) or monkey ANGPTL8 expressed with C-terminal mouse IgG2a Fc tag (MfANGPTL8-mFc; SEQ ID NO: 341).
(§2) Kinetic association (kₐ) and dissociation (kd) rate constants were determined by fitting the real-time binding sensorgrams to a 1:1 binding model with mass transport limitation using Scrubber 2.0c curve-fitting software. Binding dissociation equilibrium constants (KD) and dissociative half-lives (t½) were calculated from the kinetic rate constants as: […]

[11] = molecular target: T6, monkey ANGPTL8 expressed with …; assay: as above
Description: as §1, §2

[12] = molecular target: T5, human ANGPTL8 expressed with C-terminal …; assay: SPR MASS-1, antigen-mFc captured, mAb injected, 25C; no dissociation seen, kd fixed at the detection limit
Description: as §1, §2
(§3) To obtain an estimate of the binding affinity the dissociation rate constant, kd, was fixed at the upper detection limit under the experimental conditions, 1.0E-05 1/s.

[13] = molecular target: T6, monkey ANGPTL8 expressed with …; assay: as above
Description: as §1, §2, §3

B2: H4H15367P2 (antibody, human IgG4, V domains shown)
VH: QVQLVESGGGVVQPGRSVRLSCGASGFTFKYYGMHWVRQAPGKGLEWVAVIWYDGRNKFYADSVKGRFTISRDNSKNTVNLEMNNLRAEDTAIYYCARDGGTADGDYFDYWGQGTLVTVSS
VL: not shown
notes: H4H prefix: human IgG4 Fc
500 nM hANGPTL8 peptide Bound (RU) [1]: 43 RU
koff [1]: 9.82e-05 s⁻¹
t½ [1]: 1.97 h
500 nM hANGPTL3 peptide Bound (RU) [2]: 0 RU
binding result [2]: no binding (tested: <9 RU at 500 nM peptide)
500 nM hAngPTL4 peptide Bound (RU) [3]: 0 RU
binding result [3]: no binding (tested: <9 RU at 500 nM peptide)
binding result [9]: binds
mAb Binding Response (nm) [4]: 0 nm
mAb Binding Response (nm) [5]: 0.32 nm
mAb Binding Response (nm) [6]: 0.33 nm
binding signal, fold above background [8]: ≥ 10 fold

B3: H4H15362P2 (antibody, human IgG4, V domains shown)
VH: QVQLVESGGGVVQPGRSLRLSCAASGFTFSSYGMHWVRQAPGKGLEWVAVIWYDGSNKYYADSVKGRFTISRDNSKNTLYLQMNSLRAEDTAVYYCARDWVRFLEWFPHFDYWGQGTLVTVSS
VL: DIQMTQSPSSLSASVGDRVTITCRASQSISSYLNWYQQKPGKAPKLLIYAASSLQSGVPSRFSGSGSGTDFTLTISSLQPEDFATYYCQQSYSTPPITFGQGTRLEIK
notes: H4H prefix: human IgG4 Fc
500 nM hANGPTL8 peptide Bound (RU) [1]: 0 RU
binding result [1]: no binding (tested: <9 RU at 500 nM peptide)
500 nM hANGPTL3 peptide Bound (RU) [2]: 0 RU
binding result [2]: no binding (tested: <9 RU at 500 nM peptide)
500 nM hAngPTL4 peptide Bound (RU) [3]: 0 RU
binding result [3]: no binding (tested: <9 RU at 500 nM peptide)
mAb Binding Response (nm) [4]: 0.01 nm
mAb Binding Response (nm) [5]: 0.39 nm
mAb Binding Response (nm) [6]: 0.36 nm
binding signal, fold above background [8]: ≥ 10 fold

B4: H4H15330P (antibody, human IgG4, V domains shown)
VH: QVQLVESGGGLVKPGGSLRLSCAASGFTFSDYYMSWIRQAPGKGLEWISHISGSGRTTHYADSMKGRFTISRDNAKNSLYLQMNSLRAEDTAVYYCVREGGFNWNYEGTFDIWGQGTMVTVSS
VL: DIVMTQTPLSSPVTLGQPASISCRSSQSLLHSDQNTYLSWLHQRPGQPPRLLIYKISNRFSGVPDRFSGSGAGTDFTLKISRVEAEDVGIYYCMQGTQFPLTFGGGTKVEIK
notes: H4H prefix: human IgG4 Fc
500 nM hANGPTL8 peptide Bound (RU) [1]: 0 RU
binding result [1]: no binding (tested: <9 RU at 500 nM peptide)
500 nM hANGPTL3 peptide Bound (RU) [2]: -1 RU
500 nM hAngPTL4 peptide Bound (RU) [3]: 0 RU
binding result [3]: no binding (tested: <9 RU at 500 nM peptide)
mAb Binding Response (nm) [4]: 0.01 nm
mAb Binding Response (nm) [5]: 0.34 nm
mAb Binding Response (nm) [6]: 0.39 nm
mAb Binding Response (nm) [7]: 0.02 nm
binding signal, fold above background [8]: ≥ 10 fold

Continued, in another order:

500 nM hANGPTL8 peptide Bound (RU) [1]: 61 RU
koff [1]: 8.29e-05 s⁻¹
t½ [1]: 2.32 h
500 nM hANGPTL3 peptide Bound (RU) [2]: 0 RU
500 nM hAngPTL4 peptide Bound (RU) [3]: 0 RU
mAb Binding Response (nm) [4]: 0 nm
mAb Binding Response (nm) [5]: 0.36 nm
mAb Binding Response (nm) [6]: 0.51 nm
mAb Binding Response (nm) [7]: 0.01 nm
binding signal, fold above background [8]: ≥ 10 fold
B1: H4H15321P (antibody, human IgG4, V domains shown)
VH: EVQLVESGGGLVQPGGSLRLSCAASGFTFSSYAMSWVRQAPGKGLEWVSAITGSGGRTYYADSVKGRFTISRDNAKNTLYLQMNSLRAEDTAVYYCAKNFPFDYWGQGTLVTVSS
VL: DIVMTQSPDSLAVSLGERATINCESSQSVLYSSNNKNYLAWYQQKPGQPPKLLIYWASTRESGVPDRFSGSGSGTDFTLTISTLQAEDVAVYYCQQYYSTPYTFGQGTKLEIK
notes: H4H prefix: human IgG4 Fc
binding result [2]: no binding (tested: <9 RU at 500 nM peptide)
binding result [3]: no binding (tested: <9 RU at 500 nM peptide)

500 nM hANGPTL8 peptide Bound (RU) [1]: 0 RU
500 nM hANGPTL3 peptide Bound (RU) [2]: 0 RU
500 nM hAngPTL4 peptide Bound (RU) [3]: 0 RU
mAb Binding Response (nm) [4]: 0.03 nm
mAb Binding Response (nm) [5]: 0.12 nm
mAb Binding Response (nm) [6]: 0.1 nm
Kd [10]: ≤ 0.117 nM
kon [10]: 85000 M⁻¹ s⁻¹
t½ [10]: ≥ 19.2 h
Kd [11]: ≤ 0.086 nM
kon [11]: 116000 M⁻¹ s⁻¹
t½ [11]: ≥ 19.2 h
koff [12]: ≤ 1e-05 s⁻¹
koff [13]: ≤ 1e-05 s⁻¹
B5: H4H15341P (antibody, human IgG4, V domains shown)
VH: EVQLVESGGGLVQPGGSLRLSCAASGFTFNNHEMNWVRQAPGKGLEWVSYISSSGNTVTYADFLKGRFTISRDNAKNSLFLQMNSLRDEDTAVYYCARDHLSGTSPLSYWGQGTLVTVSS
VL: DIQMTQSPSSLSASVGDRVTITCQASQDINNYLNWFQQKPGKAPKLLIFDASNLETGVPSRFSGSGSGTDFTFTISSLQPEDIATYFCQQYENLPYTFGQGTKLEIK
notes: H4H prefix: human IgG4 Fc
binding result [1]: no binding (tested: <9 RU at 500 nM peptide)
binding result [2]: no binding (tested: <9 RU at 500 nM peptide)
binding result [3]: no binding (tested: <9 RU at 500 nM peptide)
